{"source": "the supplement of paper PMC11246515", "test": "total protein half-life in vivo (active degradation + dilution); higher = more stable protein", "key": {"[1]": {"conditions": "E. coli NCM3722 delta-clpP delta-lon delta-hslV, growth: N-lim chemostat, doubling time 6 h"}, "[2]": {"conditions": "E. coli NCM3722 delta-clpP, growth: N-lim chemostat, doubling time 6 h"}, "[3]": {"conditions": "E. coli NCM3722 delta-smpB, growth: N-lim chemostat, doubling time 6 h"}, "[4]": {"conditions": "wild type E. coli NCM3722, growth: C-lim chemostat, doubling time 6 h"}, "[5]": {"conditions": "wild type E. coli NCM3722, growth: C-lim chemostat, doubling time 12 h"}, "[6]": {"conditions": "E. coli NCM3722 delta-hslV, growth: N-lim chemostat, doubling time 6 h"}, "[7]": {"conditions": "E. coli NCM3722 delta-lon, growth: N-lim chemostat, doubling time 6 h"}, "[8]": {"conditions": "wild type E. coli NCM3722, growth: C-lim chemostat, doubling time 3 h"}, "[9]": {"conditions": "wild type E. coli NCM3722, growth: N-lim chemostat, doubling time 6 h"}, "[10]": {"conditions": "wild type E. coli NCM3722, growth: N-lim chemostat, doubling time 12 h"}, "[11]": {"conditions": "wild type E. coli NCM3722, growth: P-lim chemostat, doubling time 6 h"}, "[12]": {"conditions": "wild type E. coli NCM3722, growth: P-lim chemostat, doubling time 12 h"}}, "note": "± gives the standard deviation of the averaged measurements.", "data": [{"sequence": "MSAIDCIITAAGLSSRMGQWKMMLPWEQGTILDTSIKNALQFCSRIILVTGYRGNELHERYANQSNITIIHNPDYAQGLLTSVKAAVPAVQTEHCFLTHGDMPTLTIDIFRKIWSLRNDGAILPLHNGIPGHPILVSKPCLMQAIQRPNVTNMRQALLMGDHYSVEIENAEIILDIDTPDDFITAKERYTEI", "values": [{"measurement": "total protein half-life in vivo", "setting": "[1]", "value": 4.34, "unit": "h"}, {"measurement": "total protein half-life in vivo", "setting": "[2]", "value": "3 ± 0.059", "unit": "h"}, {"measurement": "total protein half-life in vivo", "setting": "[3]", "value": 1.3, "unit": "h"}, {"measurement": "total protein half-life in vivo", "setting": "[4]", "value": "2.39 ± 0.048", "unit": "h"}, {"measurement": "total protein half-life in vivo", "setting": "[5]", "value": "3.15 ± 0.1", "unit": "h"}]}, {"sequence": "MSAIENFDAHTPMMQQYLRLKAQHPEILLFYRMGDFYELFYDDAKRASQLLDISLTKRGASAGEPIPMAGIPYHAVENYLAKLVNQGESVAICEQIGDPATSKGPVERKVVRIVTPGTISDEALLQERQDNLLAAIWQDSKGFGYATLDISSGRFRLSEPADRETMAAELQRTNPAELLYAEDFAEMSLIEGRRGLRRRPLWEFEIDTARQQLNLQFGTRDLVGFGVENAPRGLCAAGCLLQYAKDTQRTTLPHIRSITMEREQDSIIMDAATRRNLEITQNLAGGAENTLASVLDCTVTPMGSRMLKRWLHMPVRDTRVLLERQQTIGALQDFTAGLQPVLRQVGDLERILARLALRTARPRDLARMRHAFQQLPELRAQLETVDSAPVQALREKMGEFAELRDLLERAIIDTPPVLVRDGGVIASGYNEELDEWRALADGATDYLERLEVRERERTGLDTLKVGFNAVHGYYIQISRGQSHLAPINYMRRQTLKNAERYIIPELKEYEDKVLTSKGKALALEKQLYEELFDLLLPHLEALQQSASALAELDVLVNLAERAYTLNYTCPTFIDKPGIRITEGRHPVVEQVLNEPFIANPLNLSPQRRMLIITGPNMGGKSTYMRQTALIALMAYIGSYVPAQKVEIGPIDRIFTRVGAADDLASGRSTFMVEMTETANILHNATEYSLVLMDEIGRGTSTYDGLSLAWACAENLANKIKALTLFATHYFELTQLPEKMEGVANVHLDALEHGDTIAFMHSVQDGAASKSYGLAVAALAGVPKEVIKRARQKLRELESISPNAAATQVDGTQMSLLSVPEETSPAVEALENLDPDSLTPRQALEWIYRLKSLV", "values": [{"measurement": "total protein half-life in vivo", "setting": "[1]", "value": "5.91 ± 0.07", "unit": "h"}, {"measurement": "total protein half-life in vivo", "setting": "[2]", "value": "5.059 ± 0.028", "unit": "h"}, {"measurement": "total protein half-life in vivo", "setting": "[6]", "value": "3.51 ± 0.062", "unit": "h"}, {"measurement": "total protein half-life in vivo", "setting": "[7]", "value": "3.99 ± 0.046", "unit": "h"}, {"measurement": "total protein half-life in vivo", "setting": "[3]", "value": "3.329 ± 0.022", "unit": "h"}, {"measurement": "total protein half-life in vivo", "setting": "[8]", "value": "2.84 ± 0.36", "unit": "h"}, {"measurement": "total protein half-life in vivo", "setting": "[4]", "value": "4.96 ± 0.41", "unit": "h"}, {"measurement": "total protein half-life in vivo", "setting": "[5]", "value": "9.15 ± 1.4", "unit": "h"}, {"measurement": "total protein half-life in vivo", "setting": "[9]", "value": "3.7765 ± 0.0035", "unit": "h"}, {"measurement": "total protein half-life in vivo", "setting": "[10]", "value": "5.56 ± 0.91", "unit": "h"}, {"measurement": "total protein half-life in vivo", "setting": "[11]", "value": "4.78 ± 0.42", "unit": "h"}, {"measurement": "total protein half-life in vivo", "setting": "[12]", "value": "7.5 ± 0.22", "unit": "h"}]}, {"sequence": "MSAIEVKNLVKKFHGQTVLHGIDLEVKPGEVVAIIGPSGSGKTTLLRSINLLEQPEAGTITVGDITIDTARSLSQQKSLIRQLRQHVGFVFQNFNLFPHRTVLENIIEGPVIVKGEPKEEATARARELLAKVGLAGKETSYPRRLSGGQQQRVAIARALAMRPEVILFDEPTSALDPELVGEVLNTIRQLAQEKRTMVIVTHEMSFARDVADRAIFMDQGRIVEQGAAKALFADPEQPRTRQFLEKFLLQ", "values": [{"measurement": "total protein half-life in vivo", "setting": "[2]", "value": "5.314 ± 0.015", "unit": "h"}, {"measurement": "total protein half-life in vivo", "setting": "[6]", "value": "5.44 ± 0.48", "unit": "h"}, {"measurement": "total protein half-life in vivo", "setting": "[7]", "value": "6.65 ± 1.8", "unit": "h"}, {"measurement": "total protein half-life in vivo", "setting": "[3]", "value": "5.38 ± 0.14", "unit": "h"}, {"measurement": "total protein half-life in vivo", "setting": "[8]", "value": "3.11 ± 0.18", "unit": "h"}, {"measurement": "total protein half-life in vivo", "setting": "[4]", "value": "5.25 ± 0.71", "unit": "h"}, {"measurement": "total protein half-life in vivo", "setting": "[5]", "value": "10.2 ± 1.1", "unit": "h"}, {"measurement": "total protein half-life in vivo", "setting": "[9]", "value": "6.41 ± 1.5", "unit": "h"}, {"measurement": "total protein half-life in vivo", "setting": "[10]", "value": "9.13 ± 1.8", "unit": "h"}, {"measurement": "total protein half-life in vivo", "setting": "[11]", "value": "5.16 ± 0.33", "unit": "h"}, {"measurement": "total protein half-life in vivo", "setting": "[12]", "value": "12.2 ± 1.3", "unit": "h"}]}, {"sequence": "MSANAETQTPQQPVKKSGKRKRLLLLLTLLFIIIAVAIGIYWFLVLRHFEETDDAYVAGNQIQIMSQVSGSVTKVWADNTDFVKEGDVLVTLDPTDARQAFEKAKTALASSVRQTHQLMINSKQLQANIEVQKIALAKAQSDYNRRVPLGNANLIGREELQHARDAVTSAQAQLDVAIQQYNANQAMILGTKLEDQPAVQQAATEVRNAWLALERTRIISPMTGYVSRRAVQPGAQISPTTPLMAVVPATNMWVDANFKETQIANMRIGQPVTITTDIYGDDVKYTGKVVGLDMGTGSAFSLLPAQNATGNWIKVVQRLPVRIELDQKQLEQYPLRIGLSTLVSVNTTNRDGQVLANKVRSTPVAVSTAREISLAPVNKLIDDIVKANAG", "values": [{"measurement": "total protein half-life in vivo", "setting": "[1]", "value": "6.17 ± 0.42", "unit": "h"}, {"measurement": "total protein half-life in vivo", "setting": "[2]", "value": "6.38 ± 0.53", "unit": "h"}, {"measurement": "total protein half-life in vivo", "setting": "[6]", "value": "6.57 ± 0.12", "unit": "h"}, {"measurement": "total protein half-life in vivo", "setting": "[7]", "value": "6.37 ± 0.58", "unit": "h"}, {"measurement": "total protein half-life in vivo", "setting": "[3]", "value": "6.1 ± 0.26", "unit": "h"}, {"measurement": "total protein half-life in vivo", "setting": "[8]", "value": "2.99 ± 0.1", "unit": "h"}, {"measurement": "total protein half-life in vivo", "setting": "[4]", "value": "6.37 ± 0.2", "unit": "h"}, {"measurement": "total protein half-life in vivo", "setting": "[5]", "value": "13.5 ± 1.8", "unit": "h"}, {"measurement": "total protein half-life in vivo", "setting": "[9]", "value": "6.17 ± 0.1", "unit": "h"}, {"measurement": "total protein half-life in vivo", "setting": "[10]", "value": "12 ± 0.35", "unit": "h"}, {"measurement": "total protein half-life in vivo", "setting": "[11]", "value": "6.47 ± 0.29", "unit": "h"}, {"measurement": "total protein half-life in vivo", "setting": "[12]", "value": "13.6 ± 2.7", "unit": "h"}]}, {"sequence": "MSANTEAQGSGRGLEAMKWVVVVALLLVAIVGNYLYRDIMLPLRALAVVILIAAAGGVALLTTKGKATVAFAREARTEVRKVIWPTRQETLHTTLIVAAVTAVMSLILWGLDGILVRLVSFITGLRF [P0AG96]", "values": [{"measurement": "total protein half-life in vivo", "setting": "[1]", "value": 4.72, "unit": "h"}, {"measurement": "total protein half-life in vivo", "setting": "[2]", "value": 3.93, "unit": "h"}, {"measurement": "total protein half-life in vivo", "setting": "[6]", "value": "4.78 ± 0.21", "unit": "h"}, {"measurement": "total protein half-life in vivo", "setting": "[7]", "value": "4.6239 ± 0.0021", "unit": "h"}, {"measurement": "total protein half-life in vivo", "setting": "[3]", "value": "4.69 ± 0.097", "unit": "h"}, {"measurement": "total protein half-life in vivo", "setting": "[8]", "value": "2.81 ± 0.067", "unit": "h"}, {"measurement": "total protein half-life in vivo", "setting": "[4]", "value": "5.11 ± 0.16", "unit": "h"}, {"measurement": "total protein half-life in vivo", "setting": "[5]", "value": 9.61, "unit": "h"}, {"measurement": "total protein half-life in vivo", "setting": "[9]", "value": "4.48 ± 0.26", "unit": "h"}, {"measurement": "total protein half-life in vivo", "setting": "[10]", "value": "8.61 ± 1.6", "unit": "h"}, {"measurement": "total protein half-life in vivo", "setting": "[11]", "value": 4.43, "unit": "h"}, {"measurement": "total protein half-life in vivo", "setting": "[12]", "value": "8.75 ± 1.2", "unit": "h"}]}, {"sequence": "MSAQPVDIQIFGRSLRVNCPPDQRDALNQAADDLNQRLQDLKERTRVTNTEQLVFIAALNISYELAQEKAKTRDYAASMEQRIRMLQQTIEQALLEQGRITEKTNQNFE [P0ADS2]", "values": [{"measurement": "total protein half-life in vivo", "setting": "[2]", "value": "> 8", "unit": "h"}, {"measurement": "total protein half-life in vivo", "setting": "[6]", "value": "6.14 ± 0.47", "unit": "h"}, {"measurement": "total protein half-life in vivo", "setting": "[7]", "value": "6.82 ± 0.47", "unit": "h"}, {"measurement": "total protein half-life in vivo", "setting": "[3]", "value": "5.21 ± 0.4", "unit": "h"}, {"measurement": "total protein half-life in vivo", "setting": "[8]", "value": 3.87, "unit": "h"}, {"measurement": "total protein half-life in vivo", "setting": "[4]", "value": "6.05 ± 0.48", "unit": "h"}, {"measurement": "total protein half-life in vivo", "setting": "[5]", "value": 10.5, "unit": "h"}, {"measurement": "total protein half-life in vivo", "setting": "[9]", "value": "4.5 ± 0.25", "unit": "h"}, {"measurement": "total protein half-life in vivo", "setting": "[10]", "value": "9.14 ± 1.6", "unit": "h"}, {"measurement": "total protein half-life in vivo", "setting": "[11]", "value": "5.16 ± 0.74", "unit": "h"}, {"measurement": "total protein half-life in vivo", "setting": "[12]", "value": "10.8 ± 1", "unit": "h"}]}]}
